From patent publication CN107042099A

Experiments:
[1] = target: Myc-GST融合蛋白 (Myc-GST fusion protein); assay: indirect ELISA, Myc-GST coated at 5 μg/mL, HRP anti-His secondary antibody, heat test at 70℃
[2] = target: Myc-GST融合蛋白 (Myc-GST fusion protein); assay: indirect ELISA, Myc-GST coated at 5 μg/mL, HRP anti-His secondary antibody, heat test at 80℃
[3] = target: Myc-GST融合蛋白 (Myc-GST fusion protein); assay: indirect ELISA, Myc-GST coated at 5 μg/mL, HRP anti-His secondary antibody, heat test at 90℃

OD450 [1]: 1.4 OD450 | OD450 [2]: 1.2 OD450 | OD450 [3]: 1 OD450
B1: 抗c-Myc标签单域重链抗体 (anti-c-Myc tag single-domain heavy-chain antibody) (VHH, not shown: small tags and cut ends)
VHH: QLQLVESGGGLVRPGESLRLSCDASSSEPPLLAYVVSWFRQVPGKEREGISCSSSSGVRNSYADSVKGRFTISRDNHKNTVYLQMNSLQAEDTAIYYCAAARLGARGCDFREDLQGTWGQGTQVTVSS
